In patent publication US20260092110A1 (Kyowa Kirin, published 2026):
Positions count from the first letter of the chain named. Names may count otherwise.

T1: cynomolgus monkey MOG (cMOG) expressed on HEK293 cells (cynomolgus monkey, UniProt Q9BGS7 30-247)
T1 construct: also called cMOG/HEK293
T1 sequence: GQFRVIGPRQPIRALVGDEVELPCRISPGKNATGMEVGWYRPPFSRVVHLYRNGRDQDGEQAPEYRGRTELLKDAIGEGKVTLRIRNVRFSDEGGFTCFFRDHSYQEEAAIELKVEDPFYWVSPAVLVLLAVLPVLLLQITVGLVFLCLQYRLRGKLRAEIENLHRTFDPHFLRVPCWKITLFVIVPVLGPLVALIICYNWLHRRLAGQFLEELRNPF

T2: human MOG (hMOG) expressed on HEK293, Expi293F or L929 cells (human, UniProt Q16653 30-247)
T2 construct: also called hMOG/HEK293; hMOG/HEK293F
T2 chain: T1 sequence with Q10H, R55K, E60D, I111M, A125G

T3: rat MOG (rMOG) expressed on HEK293F cells (rat, UniProt Q63345 28-245)
T3 construct: also called rMOG/HEK293F
T3 sequence: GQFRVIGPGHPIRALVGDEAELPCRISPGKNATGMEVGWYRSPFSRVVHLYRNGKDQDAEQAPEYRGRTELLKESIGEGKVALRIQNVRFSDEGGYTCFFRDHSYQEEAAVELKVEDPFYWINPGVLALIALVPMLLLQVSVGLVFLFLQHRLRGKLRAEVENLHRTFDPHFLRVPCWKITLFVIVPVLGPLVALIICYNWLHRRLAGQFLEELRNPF

B1: iMOG-3Rim1-S32 antibody (VHH-Fc expressed from N5G4PEFc_iMOG-3Rim1-S32) (Fc fusion)
chain: QVQLVESGGGLVQTGGSLRLSCAASGSMFSTMGWFRQAPGNQRELVAIMSSGGTANYADSVKGRFTISGDNVKNTVTLQMNSLNPEDTAVYYCRFTGWVKSSFSTYWGQGTQVTVSS
notes: not shown: Fc region of human IgG4PE
B2: MOG09 antibody (anti-MOG human IgG antibody expressed from N5LG4PE_MOG09) (antibody, V domains shown)
VH: QVQLQESGPGLVKSSETLSLTCAVSGHSISSAYYWGWIRQPPGKGLEWLGSIYHSGNTYYNPSLKSRVTISVDTSKNQFSLRLTSVTAADTAVYYCARGRGYSGYDSGMDVWGQGTTVTVSS
VL: SYVLTQPPSASGTPGQRVTISCSGTSSNIGINSVNWYQQLPGMAPKLVIYSRDQRPSGVPDRFSGSQSGTSASLAINGLQSEDEADYWCSTWDDSLNGWVFGGGTKLTVL
B3: MOG01 scFv-hG4PE (Fc fusion)
chain: QVQLQQSGAGLLKPSETLSLTCAVSGGSFSGYYWTWIRQRPGKGLEWIGEINHRGSTDYNPSLKSRVTMSIDTSKSQFSLNLKSVTAADTAVYYCARAAWGSCYDGTCYPAEYFQYWGQGTLVTVSSGGGGSGGRASGGGGSQSALTQPASVSGSPGQSITISCTGTSRDVGGYNYVSWYQQHPGKAPKLMIYDVNNRPSGVSNRFSGSKSGNTASLTISGLQAEDEADYFCSSYTSSSTPVVFGGGTKLTVL
B4: AVM IgG4PE(R409K)_MOG01dscFv antibody (bispecific antibody)
heavy: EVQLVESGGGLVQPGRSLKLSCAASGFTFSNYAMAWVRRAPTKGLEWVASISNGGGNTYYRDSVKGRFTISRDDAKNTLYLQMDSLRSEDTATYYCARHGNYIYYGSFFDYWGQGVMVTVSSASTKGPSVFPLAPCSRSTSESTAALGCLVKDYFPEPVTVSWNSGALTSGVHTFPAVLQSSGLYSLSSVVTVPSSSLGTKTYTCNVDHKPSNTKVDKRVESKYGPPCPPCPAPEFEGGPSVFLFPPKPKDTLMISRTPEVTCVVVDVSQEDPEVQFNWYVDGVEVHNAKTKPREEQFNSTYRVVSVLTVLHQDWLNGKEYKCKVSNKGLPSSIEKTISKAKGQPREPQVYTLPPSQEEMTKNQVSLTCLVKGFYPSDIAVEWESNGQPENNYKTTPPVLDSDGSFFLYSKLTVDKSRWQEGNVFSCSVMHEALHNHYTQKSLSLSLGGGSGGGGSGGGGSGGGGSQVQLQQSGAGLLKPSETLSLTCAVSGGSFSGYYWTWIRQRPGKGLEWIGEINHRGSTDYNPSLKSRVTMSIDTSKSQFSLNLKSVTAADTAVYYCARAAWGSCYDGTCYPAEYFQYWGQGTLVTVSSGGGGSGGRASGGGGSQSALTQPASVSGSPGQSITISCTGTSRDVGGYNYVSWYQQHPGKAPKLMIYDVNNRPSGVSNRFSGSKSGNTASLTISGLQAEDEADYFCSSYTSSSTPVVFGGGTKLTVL
light: QFVLSQPNSVSTNLGSTVKLSCKRSTGNIGSNYVSWYQQHEGRSPTTMIYRDDKRPDGVPDRFSGSIDRSSDSALLTINNVQTEDEADYFCQSYSSGINIFGGGTKLTVLGQPKAAPSVTLFPPSSEELQANKATLVCLISDFYPGAVTVAWKADSSPVKAGVETTTPSKQSNNKYAASSYLSLTPEQWKSHRSYSCQVTHEGSTVEKTVAPTECS
notes: MOG01 scFv fused to the C-terminus of anti-AVM IgG; also called pCI-AVM-hLG4PE(R409K)_MOG01scFv
B5: AVM IgG4PE(R409K)_MOG01dscFv7 antibody (bispecific antibody)
heavy: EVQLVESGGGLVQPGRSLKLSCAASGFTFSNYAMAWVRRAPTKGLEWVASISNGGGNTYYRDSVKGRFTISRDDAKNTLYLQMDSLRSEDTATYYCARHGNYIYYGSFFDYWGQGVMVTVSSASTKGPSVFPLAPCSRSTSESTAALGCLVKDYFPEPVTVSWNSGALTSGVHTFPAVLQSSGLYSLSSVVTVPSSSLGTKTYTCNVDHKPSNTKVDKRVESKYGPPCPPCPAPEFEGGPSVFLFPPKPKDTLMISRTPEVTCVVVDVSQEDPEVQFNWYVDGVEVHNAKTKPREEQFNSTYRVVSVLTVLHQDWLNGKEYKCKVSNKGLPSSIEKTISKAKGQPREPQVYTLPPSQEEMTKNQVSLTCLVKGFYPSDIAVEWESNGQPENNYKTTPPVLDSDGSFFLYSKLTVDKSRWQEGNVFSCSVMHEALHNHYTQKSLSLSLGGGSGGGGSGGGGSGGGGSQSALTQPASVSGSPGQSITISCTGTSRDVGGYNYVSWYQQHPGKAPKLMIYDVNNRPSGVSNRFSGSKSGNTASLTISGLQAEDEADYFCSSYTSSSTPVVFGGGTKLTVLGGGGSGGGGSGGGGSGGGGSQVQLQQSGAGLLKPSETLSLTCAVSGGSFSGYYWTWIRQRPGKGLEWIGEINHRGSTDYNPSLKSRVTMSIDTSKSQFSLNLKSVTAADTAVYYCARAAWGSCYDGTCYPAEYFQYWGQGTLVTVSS
light: B4 light
notes: also called pCI-AVM-hLG4PE(R409K)_MOG01scFv7
B6: AVM IgG4PE(R409K)_MOG01dscFv6 antibody (bispecific antibody)
heavy: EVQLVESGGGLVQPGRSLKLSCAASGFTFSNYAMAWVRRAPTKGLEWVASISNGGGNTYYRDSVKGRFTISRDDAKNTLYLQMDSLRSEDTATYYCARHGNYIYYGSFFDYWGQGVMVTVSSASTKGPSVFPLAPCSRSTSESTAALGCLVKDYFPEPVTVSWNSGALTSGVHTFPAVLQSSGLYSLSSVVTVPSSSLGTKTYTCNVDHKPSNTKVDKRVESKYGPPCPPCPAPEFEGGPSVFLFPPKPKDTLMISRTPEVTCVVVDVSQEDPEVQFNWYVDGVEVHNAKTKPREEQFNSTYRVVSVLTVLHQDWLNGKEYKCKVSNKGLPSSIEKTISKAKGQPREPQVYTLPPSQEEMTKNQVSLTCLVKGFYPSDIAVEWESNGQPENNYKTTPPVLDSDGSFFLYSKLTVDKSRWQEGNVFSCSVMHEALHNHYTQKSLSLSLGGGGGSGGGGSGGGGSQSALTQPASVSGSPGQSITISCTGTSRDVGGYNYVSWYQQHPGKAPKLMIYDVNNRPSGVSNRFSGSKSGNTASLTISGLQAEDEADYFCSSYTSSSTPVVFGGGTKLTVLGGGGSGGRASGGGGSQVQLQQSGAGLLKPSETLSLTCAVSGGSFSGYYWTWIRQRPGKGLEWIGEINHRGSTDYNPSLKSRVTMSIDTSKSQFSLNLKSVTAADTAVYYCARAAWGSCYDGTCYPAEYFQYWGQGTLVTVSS
light: B4 light
notes: also called pCI-AVM-hLG4PE(R409K)_MOG01scFv6
B7: AVM IgG4PE(R409K)_MOG01dscFv5 antibody (bispecific antibody)
heavy: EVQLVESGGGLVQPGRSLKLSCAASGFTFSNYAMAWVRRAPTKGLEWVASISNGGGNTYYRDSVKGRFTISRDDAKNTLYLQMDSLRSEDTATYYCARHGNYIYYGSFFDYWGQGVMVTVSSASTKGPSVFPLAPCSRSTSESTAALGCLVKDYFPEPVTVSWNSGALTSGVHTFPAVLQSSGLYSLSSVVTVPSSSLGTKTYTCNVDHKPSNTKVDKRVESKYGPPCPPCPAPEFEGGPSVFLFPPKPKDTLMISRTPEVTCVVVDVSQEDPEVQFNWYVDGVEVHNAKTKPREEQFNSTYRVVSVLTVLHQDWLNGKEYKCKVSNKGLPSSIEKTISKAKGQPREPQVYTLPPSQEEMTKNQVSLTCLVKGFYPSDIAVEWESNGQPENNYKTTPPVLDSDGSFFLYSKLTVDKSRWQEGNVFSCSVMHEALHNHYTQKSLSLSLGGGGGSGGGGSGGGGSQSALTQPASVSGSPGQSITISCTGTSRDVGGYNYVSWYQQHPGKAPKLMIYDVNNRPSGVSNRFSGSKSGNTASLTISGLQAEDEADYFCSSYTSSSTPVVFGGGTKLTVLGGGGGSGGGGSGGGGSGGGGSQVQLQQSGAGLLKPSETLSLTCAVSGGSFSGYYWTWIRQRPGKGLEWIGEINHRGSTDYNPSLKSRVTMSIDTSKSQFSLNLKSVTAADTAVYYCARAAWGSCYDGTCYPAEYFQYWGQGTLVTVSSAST
light: B4 light
notes: also called pCI-AVM-hLG4PE(R409K)_MOG01scFv5
B8: AVM IgG4PE(R409K)_MOG01dscFv3 antibody (bispecific antibody)
heavy: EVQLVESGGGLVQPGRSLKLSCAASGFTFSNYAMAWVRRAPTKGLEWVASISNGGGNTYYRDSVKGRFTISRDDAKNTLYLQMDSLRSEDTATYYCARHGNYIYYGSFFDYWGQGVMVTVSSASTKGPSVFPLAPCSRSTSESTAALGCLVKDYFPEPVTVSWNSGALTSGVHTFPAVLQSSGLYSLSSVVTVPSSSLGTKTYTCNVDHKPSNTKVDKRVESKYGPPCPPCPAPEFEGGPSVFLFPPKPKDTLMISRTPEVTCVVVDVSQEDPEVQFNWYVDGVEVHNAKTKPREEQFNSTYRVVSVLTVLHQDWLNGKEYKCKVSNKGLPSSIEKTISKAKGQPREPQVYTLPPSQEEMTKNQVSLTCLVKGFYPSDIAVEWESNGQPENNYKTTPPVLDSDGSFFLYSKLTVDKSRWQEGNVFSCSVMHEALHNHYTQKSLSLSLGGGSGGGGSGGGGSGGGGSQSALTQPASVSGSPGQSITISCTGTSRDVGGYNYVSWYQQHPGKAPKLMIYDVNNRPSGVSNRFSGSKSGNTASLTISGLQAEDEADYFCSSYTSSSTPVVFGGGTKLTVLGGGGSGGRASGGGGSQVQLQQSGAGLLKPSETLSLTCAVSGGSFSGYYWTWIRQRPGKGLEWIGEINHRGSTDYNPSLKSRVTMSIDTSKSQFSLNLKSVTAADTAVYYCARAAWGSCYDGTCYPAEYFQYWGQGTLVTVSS
light: B4 light
notes: also called pCI-AVM-hLG4PE(R409K)_MOG01scFv3
B9: MOG14 antibody (anti-MOG human IgG antibody expressed from N5KG4PE_MOG14) (antibody, V domains shown)
VH: QVQLVQSGAEVKKPGASVKVSCQASGYTFTGDYIHWVRQAPGQGLEYLGWINPDRGFTYYTQKFQGRVTMTRDTSSNTAYMELSSLRSDDTAMYYCTRENPRAYFFDLWGQGTLVTVSS
VL: EIVLTQSPGTLSLSPGERATLSCRASQSISGSYVTWYQQKPGQAPRLLIYATSNRAIGIPDKFSGGGSGRDFTLTINRLEPEDFAVYYCQQSVSSPYTFGQGTKVEIK
B10: MOG01 antibody (anti-MOG human IgG antibody expressed from N5LG4PE_MOG01) (antibody, V domains shown)
VH: QVQLQQSGAGLLKPSETLSLTCAVSGGSFSGYYWTWIRQRPGKGLEWIGEINHRGSTDYNPSLKSRVTMSIDTSKSQFSLNLKSVTAADTAVYYCARAAWGSCYDGTCYPAEYFQYWGQGTLVTVSS
VL: QSALTQPASVSGSPGQSITISCTGTSRDVGGYNYVSWYQQHPGKAPKLMIYDVNNRPSGVSNRFSGSKSGNTASLTISGLQAEDEADYFCSSYTSSSTPVVFGGGTKLTVL
notes: also called anti-MOG01 human IgG antibody; MOG01 IgG4PE

Tests used:
[1] = biological target: T1, cynomolgus monkey MOG (cMOG) expressed …; assay: flow cytometry on HEK293 cells transiently expressing cynomolgus monkey MOG; RPE-labelled goat anti-human antibody; negative control anti-AVM antibody
[2] = biological target: T4, extracellular domain protein of rat MOG to which GST is added at the C-terminus (rMOG-GST) (rat); assay: SPR Biacore T-100, antibody captured, rMOG-GST analyte; kd outside the measurement range
T4 construct: whole construct entry
Procedure: (§1) The antibodies were immobilized on CM5 sensor chips using a Human antibody Capture kit, and the binding abilities were evaluated using rMOG-GST produced in Example 4 as an analyte. The obtained sensorgrams were analyzed with BIA evaluation software, and the dissociation constants (KD values) were thus calculated.

[3] = biological target: T2, human MOG (hMOG) expressed on HEK293, …; assay: flow cytometry on HEK293 cells transiently expressing human MOG; antibody at 10 µg/mL, RPE-labelled goat anti-human antibody; negative control anti-AVM antibody
Procedure: (§2) rMOG/HEK293F, mMOG/IEK293F, cMOG/HEK293 and hMOG/HEK293 cells were suspended in a Staining Buffer (SB) of PBS containing 0.1% NaN₃ and 1% FBS each at a concentration of 5×10⁵ cells/mL and dispensed to a round-bottom 96-well plate (manufactured by Becton Dickinson).
(§3) After centrifugation (2000 rpm, 4° C., two minutes), the supernatants were removed, and the antibodies obtained in Example 6 at 10 μg/mL were added to the pellets. After suspending the pellets, the plate was left to stand at ice temperature for 30 minutes. The supernatants were removed after further centrifugation (2000 rpm, 4° C., two minutes), and the pellets were washed with SB. Then, 1 μg/mL RPE fluorescently labeled goat anti-human antibody (manufactured by […]) was added, and the plate was incubated at ice temperature for 30 minutes.
(§4) After washing with SB, the cells were suspended in SB, and the fluorescence intensities of the cells were measured using a flow cytometer FACS CANTO II (manufactured by Becton Dickinson). As the negative control, an anti-AVM antibody was used.

[4] = biological target: T4, extracellular domain protein of rat MOG …; assay: SPR Biacore T-100, antibody captured, rMOG-GST analyte; KD not unique (kd outside range)
Procedure: as §1

[5] = biological target: T4, extracellular domain protein of rat MOG …; assay: SPR Biacore T-100, antibody captured, rMOG-GST analyte
Procedure: as §1

[6] = biological target: T1, cynomolgus monkey MOG (cMOG) expressed …; assay: flow cytometry on HEK293 cells transiently expressing cynomolgus monkey MOG; antibody at 10 µg/mL, RPE-labelled goat anti-human antibody; negative control anti-AVM antibody
Procedure: as §2, §3, §4

[7] = biological target: T3, rat MOG (rMOG) expressed on HEK293F …; assay: flow cytometry on HEK293 cells transiently expressing rat MOG; antibody at 10 µg/mL, RPE-labelled goat anti-human antibody; negative control anti-AVM antibody
Procedure: as §2, §3, §4

[8] = biological target: T5, extracellular domain protein of human MOG to which GST is added at the C-terminus (hMOG-GST) (human); assay: SPR, antibody captured, hMOG-GST analyte; ka outside the measurement range
[9] = biological target: T6, extracellular domain protein of mouse MOG to which GST is added at the C-terminus (mMOG-GST) (mouse); assay: SPR, antibody captured, mMOG-GST analyte
T6 sequence (chain, as listed by the source limits assumed): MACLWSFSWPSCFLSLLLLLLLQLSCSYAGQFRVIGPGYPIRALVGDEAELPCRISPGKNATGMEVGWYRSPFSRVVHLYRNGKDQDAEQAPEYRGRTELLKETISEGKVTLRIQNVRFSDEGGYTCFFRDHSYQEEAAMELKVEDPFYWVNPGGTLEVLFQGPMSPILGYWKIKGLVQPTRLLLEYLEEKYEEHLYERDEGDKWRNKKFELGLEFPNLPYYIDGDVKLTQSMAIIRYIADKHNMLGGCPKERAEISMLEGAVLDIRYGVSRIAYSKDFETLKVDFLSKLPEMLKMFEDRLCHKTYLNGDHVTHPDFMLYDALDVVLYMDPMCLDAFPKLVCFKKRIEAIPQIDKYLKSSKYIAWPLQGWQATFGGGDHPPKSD

[10] = biological target: T6, extracellular domain protein of mouse …; assay: SPR, antibody captured, mMOG-GST analyte; paragraph 625: KD could not be determined as a unique value
[11] = biological target: T6, extracellular domain protein of mouse …; assay: SPR, antibody captured, mMOG-GST analyte; paragraph 625: ka of MOG01 scFv-hG4PE outside the measurement range
[12] = biological target: T5, extracellular domain protein of human …; assay: SPR, antibody captured, hMOG-GST analyte
Procedure: as §1
The results of evaluation of the affinities to human MOG are shown in Table 14, and the results of evaluation of the affinities to mouse MOG are shown in Table 15.

[13] = biological target: T5, extracellular domain protein of human …; assay: SPR, antibody captured, hMOG-GST analyte; KD not unique (ka outside range)
[14] = biological target: T4, extracellular domain protein of rat MOG …; assay: SPR as in Example 8 (antibody captured, rMOG-GST analyte)
Procedure: as §1

[15] = biological target: T4, extracellular domain protein of rat MOG …; assay: as above; remark: listed apart in the source
Procedure: as §1
Binding of the bispecific antibodies obtained in Example 6 and Example 16 to MOG was evaluated by the same method as that of Example 8.

[16] = biological target: T2, human MOG (hMOG) expressed on HEK293, …; assay: flow cytometry, hMOG/L929 cells
Source text: pEF6_hMOG obtained in Example 5 was introduced to mouse connective tissue-derived fibroblast L929 cells [American Type Culture Collection (ATCC) No.: CCL-1] using HilyMax (manufactured by Dojindo Laboratories). The gene-transfected cells were selected using an antibiotic substance, Blasticidin (manufactured by Invitrogen) and then cloned by the limiting dilution method. Using the L929 cells expressing hMOG on the cell surface (abbreviated as hMOG/L929 below), the reactivities of the bispecific antibodies were analyzed by the method described below.
The hMOG/L929 cells were suspended in a Staining Buffer (SB) of PBS containing 0.1% NaN₃ and 1% FBS and dispensed to a round-bottom 96-well plate (manufactured by Becton Dickinson). […] After suspending the pellets, the plate was left to stand at ice temperature for 30 minutes. The supernatants were removed after further centrifugation (2000 rpm, 4° C., two minutes), and the pellets were washed with SB. Then, 1 μg/mL RPE fluorescently labeled goat anti-human antibody (manufactured by Southern Biotech) was added, and the plate was incubated at ice temperature for 30 minutes. After washing with SB, the cells were suspended in SB, and the fluorescence intensities of the cells were measured with a flow cytometer FACS CANTO II (manufactured by Becton Dickinson). The results are shown in FIGS. 12A to 12C and FIGS. 13A and 13B.

Binder	binding result [3]	kon [5] [M⁻¹ s⁻¹]	binding result [6]	binding result [7]	Kd [15] [nM]	koff [15] [s⁻¹]	kon [15] [M⁻¹ s⁻¹]	binding result [16]	further results
B1	–	–	–	–	–	–	–	–	binding result [1]: no binding (tested: 10 µg/mL)
B2	binds	9000	binds	binds	–	–	–	–	koff [2]: 1.9e-07 s⁻¹; Kd [4]: 0.021 nM
B3	–	–	–	–	–	–	–	–	kon [8]: 4.1e+06 M⁻¹ s⁻¹; koff [9]: 0.04 s⁻¹; Kd [10]: 6.9 nM; kon [11]: 5.9e+06 M⁻¹ s⁻¹; koff [12]: 0.015 s⁻¹; Kd [13]: 3.6 nM
B4	–	–	–	–	200	0.0049	24000	–	Kd [14]: 200 nM; koff [14]: 0.0046 s⁻¹; kon [14]: 23000 M⁻¹ s⁻¹
B5	–	–	–	–	–	–	–	binds	–
B6	–	–	–	–	–	–	–	binds	–
B7	–	–	–	–	24	0.0048	200000	binds	–
B8	–	–	–	–	13	0.0022	170000	binds	–
B9	binds	4700	binds	binds	–	–	–	–	Kd [5]: 40 nM; koff [5]: 0.00019 s⁻¹
B10	binds	140000	binds	binds	–	–	–	–	Kd [5]: 6.6 nM; koff [5]: 0.00095 s⁻¹
